The supplement of paper PMC7877785
± gives the uncertainty stated by the source.

Experiment: self-splicing fitness, log relative to wild type (ln ratio); higher = more splicing; Tetrahymena group I intron in knt gene, E. coli kanamycin selection, DiMSum; sequences stand for … in CUCUCU…GGAGGGAAAAGUUAUCAGGCAUGCACCUGGUAGCUAGUCUUUAAACCAAUAGAUUGCAUCGGUUUAAAAGGCAAGACCGUCAAAUUGCGGGAAAGGGGUCAACAGCCGUUCAGUACCAAGUCUCAGGGGAAACUUUGAGAUGGCCUUGCAAAGGGUAUGGUAAUAAGCUGACGGACAUGGUCCUAACCACGCAGCCAAGUCCUAAGUCAACAGAUCUUCUGUUGAUAUGGAUGCAGUUCACAGACUAAAUGUCGGUCGGGGAAGAUGUAUUCUUCUCAUAAGAUAUAGUCGGACCUCUCCUUAAUGGGAGCUAGCGGAUGAAGUGAUGCAACACUGGAGCCGCUGGGAACUAAUUUGUAUGCGAAAGUAUAUUGAUUAGUUUUGGAGUACUCGUGGUCG
In short: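 The eight P1ex-region nucleotides of an intron in the knt kanamycin-resistance gene on pET-22b(+) were all randomised and the library put into E. coli BL21(DE3). Six replicate transformations were grown overnight at 37°C or 30°C on LB agar with or without 25 μg/mL kanamycin, together with 100 μg/mL carbenicillin, 50 μM IPTG and 0.2% rhamnose. Colonies were pooled and amplicon-sequenced on an Illumina HiSeq 2500. Fitness from DiMSum is the error-weighted combination of wild-type-normalised replicate fold changes, kanamycin over none.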

Row | Sequence | self-splicing fitness (ln) (30 °C) | self-splicing fitness (ln) (37 °C)
1 | CCGAAGCAAUAUUACGUAGA | -3.45 ± 0.17 | -1.06 ± 0.17
2 | GCGAAGCAAUAUUACGUUGA | -2.59 ± 0.15 | -2.33 ± 0.14
3 | CUAUAGCAAUAUUACGGUUA | -2.91 ± 0.2 | -2.84 ± 0.19
4 | UUUGAGCAAUAUUACGUUUG | -3.29 ± 0.26 | -2 ± 0.31
5 | CGCAAGCAAUAUUACGCACC | -1.54 ± 0.29 | -0.0713 ± 0.4
6 | UCUAAGCAAUAUUACGGGAA | -2.29 ± 0.22 | -1.76 ± 0.14
7 | AACGAGCAAUAUUACGUUAG | -3.71 ± 0.33 | -3.11 ± 0.3
8 | CACAAGCAAUAUUACGGAUU | -3.91 ± 0.2 | -2.61 ± 0.2
9 | UCACAGCAAUAUUACGGCCC | -3.44 ± 0.45 | -1.82 ± 0.44
10 | GACUAGCAAUAUUACGCGGG | -2.7 ± 0.22 | -1.75 ± 0.18
11 | GCUGAGCAAUAUUACGGUCA | -2.69 ± 0.15 | -2.2 ± 0.14
12 | GAUGAGCAAUAUUACGUCCA | -2.12 ± 0.36 | -2.26 ± 0.32
13 | CAACAGCAAUAUUACGCUUA | -2.13 ± 0.12 | -0.653 ± 0.09
14 | GAAAAGCAAUAUUACGUUAU | -1.67 ± 0.07 | -0.868 ± 0.088
15 | ACGCAGCAAUAUUACGUAGC | -3.47 ± 0.12 | -1.89 ± 0.14
16 | UGGUAGCAAUAUUACGCAUC |  | -3.68 ± 0.46
17 | UAUUAGCAAUAUUACGCCUG | -0.0456 ± 0.13 | 0.00497 ± 0.16
18 | UGCCAGCAAUAUUACGGAUC | -3.04 ± 0.22 | -1.13 ± 0.17
19 | CCGGAGCAAUAUUACGCUAG | -3.07 ± 0.21 | -2.33 ± 0.26
20 | CGGUAGCAAUAUUACGAUCC | -1.23 ± 0.22 | -1.56 ± 0.34
21 | UUAAAGCAAUAUUACGCUGG | -0.4 ± 0.11 | -0.152 ± 0.12
22 | UUGAAGCAAUAUUACGUUUG | -1.6 ± 0.12 | -0.811 ± 0.19
23 | GCAUAGCAAUAUUACGUCAA | -2.89 ± 0.25 | -1.82 ± 0.18
24 | CGAGAGCAAUAUUACGCAUG | -2.98 ± 0.12 | -2.02 ± 0.12
25 | ACCGAGCAAUAUUACGCUAA | -3.28 ± 0.32 | -2.05 ± 0.28
26 | CACGAGCAAUAUUACGAUCA | -2.68 ± 0.22 | -2.11 ± 0.19

Row | Sequence | self-splicing fitness (ln) (30 °C) | self-splicing fitness (ln) (37 °C)
27 | UCAAAGCAAUAUUACGGUGA | -0.776 ± 0.098 | -0.408 ± 0.11
28 | AGAAAGCAAUAUUACGUCUA | -0.728 ± 0.091 | -0.00176 ± 0.092
29 | CUAUAGCAAUAUUACGUCCG | -0.823 ± 0.11 | 0.0188 ± 0.13
30 | CGAUAGCAAUAUUACGCUAA |  | -0.607 ± 0.26
31 | GCGUAGCAAUAUUACGGCCC | 0.00127 ± 0.32 | -2.25 ± 0.39
32 | ACUGAGCAAUAUUACGUGCG | -3 ± 0.13 | -1.28 ± 0.11
33 | AGAUAGCAAUAUUACGUGAC | -3.44 ± 0.23 | -2.71 ± 0.48
34 | CGAAAGCAAUAUUACGCAAG | -1.44 ± 0.097 | -0.503 ± 0.12
35 | CCUCAGCAAUAUUACGACGU | -3.17 ± 0.18 | -2.68 ± 0.24
36 | AGUAAGCAAUAUUACGUAGU | -3.22 ± 0.14 | -2.53 ± 0.16
37 | AAGCAGCAAUAUUACGCAUA | -2.01 ± 0.11 | -0.237 ± 0.1
38 | ACUAAGCAAUAUUACGUAAG | -1.05 ± 0.069 | -0.663 ± 0.089
39 | UCACAGCAAUAUUACGUGAA | -2.36 ± 0.1 | -1.4 ± 0.1
40 | UUACAGCAAUAUUACGUUGA | -1.57 ± 0.1 | -0.574 ± 0.1
41 | CCCCAGCAAUAUUACGGUGG | -4.09 ± 0.2 | -1.86 ± 0.11
42 | AACCAGCAAUAUUACGGAAU | -2.06 ± 0.08 | -0.602 ± 0.091
43 | UGUUAGCAAUAUUACGGUGG | -1.95 ± 0.16 | -0.147 ± 0.16
44 | AGGUAGCAAUAUUACGGUCU | -0.498 ± 0.013 | -0.107 ± 0.033
45 | GUCAAGCAAUAUUACGAGCC | -4.32 ± 0.25 | -2.26 ± 0.26
46 | UCGUAGCAAUAUUACGACUA | -1.41 ± 0.19 | -0.0995 ± 0.15
47 | UUGGAGCAAUAUUACGUGUA | -3.69 ± 0.29 | 
48 | AUCGAGCAAUAUUACGCCUC | -2.06 ± 0.39 | -1.98 ± 0.45
49 | UGUCAGCAAUAUUACGGCAG | -1.55 ± 0.11 | -0.219 ± 0.13
50 | UCUUAGCAAUAUUACGAGGG | -1.87 ± 0.16 | -2.1 ± 0.25
51 | ACUCAGCAAUAUUACGCCAC | -2.88 ± 0.21 | 
52 | CGGAAGCAAUAUUACGAGAG | -3.45 ± 0.49 | -1.65 ± 0.26

Row | Sequence | self-splicing fitness (ln) (30 °C) | self-splicing fitness (ln) (37 °C)
53 | GCAUAGCAAUAUUACGUGGC | -2.72 ± 0.32 | -2.15 ± 0.31
54 | ACUAAGCAAUAUUACGCACA | -1.23 ± 0.11 | 0.0989 ± 0.1
55 | AGCUAGCAAUAUUACGGCGA | -0.581 ± 0.081 | 0.0269 ± 0.12
56 | CCGUAGCAAUAUUACGAGAU | -3.86 ± 0.32 | -2.29 ± 0.3
57 | GGUCAGCAAUAUUACGUGGU | -2.54 ± 0.18 | -2.17 ± 0.23
58 | GUGGAGCAAUAUUACGGCGU | -1.29 ± 0.26 | -0.557 ± 0.48
59 | AGAUAGCAAUAUUACGGUGC | -4.21 ± 0.31 | -0.624 ± 0.15
60 | GCUGAGCAAUAUUACGGGUG | -1.72 ± 0.087 | -1.29 ± 0.11
61 | GCGGAGCAAUAUUACGGUUU |  | -2.53 ± 0.39
62 | GACAAGCAAUAUUACGAGGG | -4.27 ± 0.18 | -2.81 ± 0.15
63 | UGCAAGCAAUAUUACGACUC | -2.66 ± 0.18 | -1.56 ± 0.17
64 | UAUCAGCAAUAUUACGUGGG | -1.97 ± 0.1 | -1.77 ± 0.13
65 | UCACAGCAAUAUUACGUAGU | -3.38 ± 0.12 | -2.6 ± 0.17
66 | CACUAGCAAUAUUACGGAAU | -4 ± 0.27 | -2.3 ± 0.32
67 | UCUAAGCAAUAUUACGAGGA | -3.5 ± 0.4 | -2.72 ± 0.44
68 | GCGCAGCAAUAUUACGUUAU | -0.78 ± 0.048 | -0.0311 ± 0.064
69 | CGCAAGCAAUAUUACGUUCA | -1.33 ± 0.1 | -0.636 ± 0.098
70 | AAGAAGCAAUAUUACGACAG | -2.2 ± 0.11 | -0.487 ± 0.1
71 | CCUCAGCAAUAUUACGAAGG | -3.6 ± 0.34 | -1.84 ± 0.4
72 | GCAAAGCAAUAUUACGUAUC | -2.35 ± 0.082 | -1.74 ± 0.076
73 | GGCAAGCAAUAUUACGGUCC | -2.95 ± 0.15 | -2.1 ± 0.17
74 | GUUUAGCAAUAUUACGCUAG | -2.38 ± 0.16 | -0.42 ± 0.13
75 | GGCAAGCAAUAUUACGAAUU | -0.859 ± 0.074 | 0.0425 ± 0.081
76 | ACUAAGCAAUAUUACGGCUA | -0.685 ± 0.085 | 0.0711 ± 0.11
